Data published in publication PMC9712102, “Direct activation of a bacterial innate immune system by a viral capsid protein” (Nature, 2022).

Target: T1, CapRel^SJ46, purified full-length (Salmonella temperate phage SJ46)
T1 construct: also called purified CapRel^SJ46; source: E. coli BL21 (DE3), pET24d-His10-SUMO-capRel^SJ46, purified (nickel resin, SEC, tag removed with Ulp1); not shown: His10, N-terminal, cleaved; SUMO, N-terminal, cleaved
Experiment: ITC; CapRel^SJ46 (or variant) at 150 μM in the syringe titrated into Gp57 (or variant) at 10 μM in the cell; 25 °C; 50 mM HEPES pH 7.5, 500 mM KCl, 500 mM NaCl, 150 mM imidazole, 10 mM MgCl2, 1 mM TCEP, 0.002% mellitic acid
Conditions: both partners purified

B1: Gp57, purified (natural protein)
chain: MAKKYDELDATIVANHLQIQGVKTDASDMGIWTAQELHKIRSTAYEKEYPAGSALRVFPVTNELSDTDKTFEYQTFDKVGYAKIIADYTDDLPTVDALMTSEFGKVFRLGNAFLISIDEIKAGQRTGKSLSTRKANAAQNAHDQLINFLVFKGSKPHKIVSVFDHPNLTKIVSKGWMSQDGNTKFPDVASDELEAAIETIEEVTKGQHRATNILIPPSMRKVLTVRMENTTESYLEYFQKQNGGITIDSIAELEDIDGKGTKGCLVYEKDPMNMSIEIPEAFNMLPAQPKDLHFKVPCTSKCTGLTIYRPFTMVLITGLKKSV
Work on B1 yielded a Kd of 350 nM.
